Numbering of substitutions follows the chain as printed.
Key:
Assay in all cases: cell_activity
[1] = target: T1, CbbR G205D/R283H (Ralstonia eutropha) (UniProt P42722); conditions: beta-galactosidase, chemoheterotrophic; chemoautotrophic 4480
T1 sequence: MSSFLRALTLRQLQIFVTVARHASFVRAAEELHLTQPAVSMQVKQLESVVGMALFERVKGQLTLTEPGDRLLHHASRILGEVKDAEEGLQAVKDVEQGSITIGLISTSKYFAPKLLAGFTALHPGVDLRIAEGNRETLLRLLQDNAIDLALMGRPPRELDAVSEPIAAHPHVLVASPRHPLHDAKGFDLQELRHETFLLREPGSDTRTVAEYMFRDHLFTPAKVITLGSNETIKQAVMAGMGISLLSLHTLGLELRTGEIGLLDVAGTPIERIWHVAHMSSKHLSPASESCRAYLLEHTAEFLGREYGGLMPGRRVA

[2] = target: T2, CbbR D148N (Ralstonia eutropha) (UniProt P42722); conditions: beta-galactosidase, chemoheterotrophic; chemoautotrophic 6442
T2 sequence: T1 sequence with D148N, D205G, H283R

[3] = target: T3, CbbR L79F (Ralstonia eutropha) (UniProt P42722); conditions: beta-galactosidase, chemoheterotrophic; chemoautotrophic 6840
T3 sequence: T1 sequence with L79F, D205G, H283R

[4] = target: T4, CbbR G125D (Ralstonia eutropha) (UniProt P42722); conditions: beta-galactosidase, chemoheterotrophic; chemoautotrophic 6777
T4 sequence: T1 sequence with G125D, D205G, H283R

[5] = target: T5, CbbR A167V (Ralstonia eutropha) (UniProt P42722); conditions: beta-galactosidase, chemoheterotrophic; chemoautotrophic 7373
T5 sequence: T1 sequence with A167V, D205G, H283R

[6] = target: T6, CbbR D144N (Ralstonia eutropha) (UniProt P42722); conditions: beta-galactosidase, chemoheterotrophic; chemoautotrophic 6932
T6 sequence: T1 sequence with D144N, D205G, H283R

[7] = target: T7, CbbR T232A (Ralstonia eutropha) (UniProt P42722); conditions: beta-galactosidase, chemoheterotrophic; chemoautotrophic 5269
T7 sequence: T1 sequence with D205G, T232A, H283R

[8] = target: T8, CbbR E87K/G242S (Ralstonia eutropha) (UniProt P42722); conditions: beta-galactosidase, chemoheterotrophic; chemoautotrophic 4820
T8 sequence: T1 sequence with E87K, D205G, G242S, H283R

cbb promoter in lacZ reporter strain showed an activity [1] of 2310 nmol/min/mg, an activity [2] of 343 nmol/min/mg and an activity [3] of 218 nmol/min/mg. For the same substance, the activity [4] was 108 nmol/min/mg, the activity [5] was 768 nmol/min/mg and the activity [6] was 809 nmol/min/mg. The activity [7] was 212 nmol/min/mg and the activity [8] was 303 nmol/min/mg.

— patent US20140087436
